The record followed here is patent publication US20120107364A1 (ACTGEN, published 2012).

For assay [1], the target named is T1, human-derived PODXL2 protein (Homo sapiens podocalyxin-like (PODXL), transcript variant 2, NM-005397.3), full … (human, UniProt O00592 23-558).
T1 construct: 526 amino acids; also called full-length PODXL2 gene
T1 sequence: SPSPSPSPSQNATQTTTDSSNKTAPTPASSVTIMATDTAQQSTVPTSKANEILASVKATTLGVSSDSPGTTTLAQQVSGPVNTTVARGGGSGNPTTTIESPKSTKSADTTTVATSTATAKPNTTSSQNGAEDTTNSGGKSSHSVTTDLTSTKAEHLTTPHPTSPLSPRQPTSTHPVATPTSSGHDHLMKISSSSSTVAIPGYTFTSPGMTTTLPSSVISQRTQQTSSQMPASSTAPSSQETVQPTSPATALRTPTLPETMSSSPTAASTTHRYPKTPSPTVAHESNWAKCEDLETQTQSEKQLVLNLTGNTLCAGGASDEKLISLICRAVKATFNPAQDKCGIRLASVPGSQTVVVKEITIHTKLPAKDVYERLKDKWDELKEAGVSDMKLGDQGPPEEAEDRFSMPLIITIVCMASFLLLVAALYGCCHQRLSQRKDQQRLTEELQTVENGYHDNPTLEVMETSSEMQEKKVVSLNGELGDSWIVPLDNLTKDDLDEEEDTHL
The assay is described as follows: flow cytometry on Ba/F3 cells expressing PODXL2 against negative control Ba/F3 cells (FIG. 1). The method, then: (§1) To each sample of the cell suspension, 50 μl of the hybridoma culture supernatant or 2-μg/ml of the purified antibody (hereinafter, referred to as an “antibody solution”) was added, and the antibody was reacted with the cells. As an isotype control of the antibody solution, a wash buffer containing 2 μg/ml of each of mouse IgG1 (BioLegend, 400412), mouse IgG2a (BioLegend, 400224), and mouse IgG2b (BioLegend, 400324) was used. The hybridoma culture supernatant was reacted with the target cells at room temperature for 30 minutes, followed by centrifugation at 700×g for 2 minutes. Then, a culture supernatant was removed. Further, 100 μl of a wash buffer was added, followed by centrifugation at 700×g for 2 minutes again. A supernatant was removed. Then, the cells were washed.
Next, to the cell pellets after the washing, 50 μl of Goat anti-mouse IgG, F(ab′) 2-PE (PE=phycoerythrin, Beckman Coulter, IM0855) diluted 200-fold with a wash buffer was added as a secondary antibody for detection, and reacted in the dark at room temperature for 30 minutes. The reaction was followed by centrifugation at 700×g for 2 minutes. A supernatant was removed. Further, 100 μl of a wash buffer was added, followed by centrifugation at 700×g for 2 minutes again. A supernatant was removed. […] The reactivity between the antibody and the cells was analyzed by a flow cytometer (Beckman Coulter, FC500 MPL).
(In flow cytometry, cells or beads pass a laser one at a time.)

Assay [2] has as its target T2, PODXL2, positions 1 to 390 (human, UniProt O00592 23-422).
T2 construct: One of the 14 C-terminal truncations in 10-residue steps; Expressed on Ba/F3 cells; also called R390
T2 sequence: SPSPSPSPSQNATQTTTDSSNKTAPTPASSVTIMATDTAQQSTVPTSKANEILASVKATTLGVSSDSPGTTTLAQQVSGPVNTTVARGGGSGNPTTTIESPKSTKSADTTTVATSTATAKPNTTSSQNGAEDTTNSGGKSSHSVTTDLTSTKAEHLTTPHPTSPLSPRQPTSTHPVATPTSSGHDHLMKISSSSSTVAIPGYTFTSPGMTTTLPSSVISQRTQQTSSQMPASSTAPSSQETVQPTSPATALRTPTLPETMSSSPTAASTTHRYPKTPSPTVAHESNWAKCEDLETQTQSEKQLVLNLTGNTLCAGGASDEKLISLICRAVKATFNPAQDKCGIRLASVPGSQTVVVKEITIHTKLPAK
The assay is described as follows: flow cytometry on Ba/F3 cells expressing the truncated PODXL2. The method, then:
as §1
(§2) Next, to the cell pellets after the washing, 50 μl of Goat anti-mouse IgG, F(ab′) 2-PE (PE=phycoerythrin, Beckman Coulter, IM0855) diluted 200-fold with a wash buffer was added as a secondary antibody for detection, and reacted in the dark at room temperature for 30 minutes. The reaction was followed by centrifugation at 700×g for 2 minutes. A supernatant was removed. Further, 100 μl of a wash buffer was added, followed by centrifugation at 700×g for 2 minutes again. A supernatant was removed. Then, the cells were washed. Thereafter, the cells were suspended in an appropriate amount of a wash buffer. The reactivity between the antibody and the cells was analyzed by a flow cytometer (Beckman Coulter, FC500 MPL).
(§3) Thereafter, by the same method as in Example 1 (4) (the virus packaging and thereafter), Ba/F3 cells containing the PODXL2 gene sequences of various chain lengths were prepared. Further, by the same method as in Example 4, the reactivity between the ACT36-27_{—}5D1 antibody and the Ba/F3 cells expressing the PODXL2 molecules of various chain lengths was analyzed by a flow cytometer (FIG. 10).

Assay [3] addresses T3, PODXL2, positions 1 to 310 (human, UniProt O00592 23-342).
T3 construct: One of the 14 C-terminal truncations; Expressed on Ba/F3 cells; also called R310
T3 sequence: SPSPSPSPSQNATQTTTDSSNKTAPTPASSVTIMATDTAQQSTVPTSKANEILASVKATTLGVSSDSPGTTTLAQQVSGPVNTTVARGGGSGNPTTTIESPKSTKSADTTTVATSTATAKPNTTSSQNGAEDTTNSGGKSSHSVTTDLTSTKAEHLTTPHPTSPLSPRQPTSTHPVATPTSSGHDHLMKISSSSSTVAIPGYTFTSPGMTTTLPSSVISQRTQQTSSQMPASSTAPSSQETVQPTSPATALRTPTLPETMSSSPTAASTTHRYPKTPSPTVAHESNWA
Described as above. The method, then: as §1, §2, §3

Assay [4] concerns the target T4, PODXL2, positions 1 to 410 (human, UniProt O00592 23-442).
T4 construct: Encoded as positions 1-410 in pMX-SST and expressed on Ba/F3 cells; The vector-encoded part is not described; also called R410
T4 sequence: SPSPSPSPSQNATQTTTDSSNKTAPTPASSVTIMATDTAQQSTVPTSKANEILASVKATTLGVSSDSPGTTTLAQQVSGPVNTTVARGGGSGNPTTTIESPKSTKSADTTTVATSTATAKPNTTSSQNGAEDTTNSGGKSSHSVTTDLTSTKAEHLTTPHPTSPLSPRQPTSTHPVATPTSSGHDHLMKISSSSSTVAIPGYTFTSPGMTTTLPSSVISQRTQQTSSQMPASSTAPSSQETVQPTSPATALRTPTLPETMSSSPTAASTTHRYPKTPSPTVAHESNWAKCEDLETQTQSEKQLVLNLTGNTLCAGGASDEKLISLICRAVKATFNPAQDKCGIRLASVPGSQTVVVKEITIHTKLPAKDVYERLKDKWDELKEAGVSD
The description is as above. Here is the method:
as §1, §2, §3

B1: ACT36-27-5D1 antibody (antibody, V domains shown)
VH: EVQLQQSGPELVKPGASVKMSCKASGYTFTSYVMHWVKQKPGQGLEWIGYIHPYNDGIKYNEKFKGKATLTSDKSSSTAYMDLSSLTSEDSAVYYCARSWDWYFDVWAAGTTVTVSS
VL: QIVLTQSPAIMSASPGEKVSMTCSASSSVSYMHWYQQKSGTSPKRWIYDTSKLASGVPARFSGSGSGTSYSLTISSMEAEDAATYYCLQWSSNPPTFGGGTKLE
notes: also called anti-PODXL2 antibody ACT36-27-5D1; anti-ACT36-27-5D1 monoclonal antibody
As for B1, the binding result in assay [1] is listed as “binds”; in assay [2], “no binding”; in assay [3] it was “no binding”; in assay [4], “binds”.
